Data as given in US6458368.

Tests used:
[1] = biological target: unfolded HPV16 VLP (baculo-derived HPV16 VLPs in 0.2M carbonate buffer pH9.5) (Human papillomavirus type 16) (UniProt P03101); assay: ELISA, plates coated with VLP in carbonate buffer pH 9.5; antibody stock 35 µg/ml
[2] = biological target: baculo-derived HPV16 VLPs in PBS (native form) (Human papillomavirus type 16) (UniProt P03101); assay: ELISA, plates coated with baculo-derived HPV16 VLPs in PBS; antibody stock 35 µg/ml

## HPV16-L1 mAb CAMVIR-1 (antibody)
[1]
  IgG titer (reciprocal of the highest sample dilution that yielded an OD492 four times that of preimmune sample) (reciprocal dilution): 80000
[2]
  IgG titer (reciprocal of the highest sample dilution that yielded an OD492 four times that of preimmune sample) (reciprocal dilution): 16000
